Data as given in publication PMC9270245, “A metal ion–dependent conformational switch modulates activity of the Plasmodium M17 aminopeptidase” (The Journal of Biological Chemistry, 2022).
Positions count from the first letter of the chain named. In names and notes the source's numbering stands.

B1: M17 aminopeptidase from Plasmodium falciparum, wildtype (truncated, amino acids 85-605) (enzyme, UniProt Q8IL11 85-605, looked up)
chain: ASEVPQVVSLDPTSIPIEYNTPIHDIKVQVYDIKGGCNVEEGLTIFLVNNPGKENGPVKISSKVNDKNVSEFLKDENMEKFNVKLGTSKHFYMFNDNKNSVAVGYVGCGSVADLSEADMKRVVLSLVTMLHDNKLSKLTVVFEINVDKNLFRFFLETLFYEYMTDERFKSTDKNVNMEYIKHLGVYINNADTYKEEVEKARVYYFGTYYASQLIAAPSNYCNPVSLSNAAVELAQKLNLEYKILGVKELEELKMGAYLSVGKGSMYPNKFIHLTYKSKGDVKKKIALVGKGITFDSGGYNLKAAPGSMIDLMKFDMSGCAAVLGCAYCVGTLKPENVEIHFLSAVCENMVSKNSYRPGDIITASNGKTIEVGNTDAEGRLTLADALVYAEKLGVDYIVDIATLTGAMLYSLGTSYAGVFGNNEELINKILNSSKTSNEPVWWLPIINEYRATLNSKYADINNISSSVKASSIVASLFLKEFVQNTAWAHIDIAGVSWNFKARKPKGFGVRLLTEFVLNDAL
notes: Homohexamer, a dimer of trimers; also called PfA-M17; wildtype PfA-M17; source: E. coli BL21(DE3), autoinduction, purified (nickel-nitrilotriacetic acid agarose, gel filtration on Superdex S200)
B2: PfA-M17 (A387P) (enzyme)
chain: B1 chain with A303P
notes: M17 aminopeptidase of Plasmodium falciparum, amino acids 85-605, with a proline in place of Ala387 by site-directed mutagenesis (PCR); the PDB entries hold the wildtype parent; source: E. coli BL21(DE3), autoinduction, purified (nickel-nitrilotriacetic acid agarose, gel filtration on Superdex S200)

Target: the molecule itself
Experiment: SEC; analytical gel filtration, 100 ug purified protein, Superdex S200 Increase 10/300, 50 mM Hepes (pH 8.0), 300 mM NaCl, 1 mM MnCl2; approximate molecular weight by interpolation of a standard curve

| Protein | stoichiometry N |
| --- | --- |
| B1 | 6 |
| B2 | 6 |
